This note sets out measurements from US20230382979A1 (ADAPTIVE BIOTECHNOLOGIES, published 2023).

For experiment [1], the target named is SARS-CoV (2003) spike protein borne on lentiviral pseudovirus (SARS-CoV (2003), UniProt P59594 14-1255). Nature of the experiment: cell-based or functional assay.
Experiment [2] addresses SARS-CoV-2 spike protein, WA1/2020, borne on lentiviral pseudovirus (SARS-CoV-2, WA01/2020 strain, UniProt P0DTC2 14-1273). Nature of the experiment: cell-based or functional assay.
Experiment [3] concerns the target T1, SARS-CoV-2 spike (S) protein trimer, WA01/2020 strain (SARS-CoV-2, WA01/2020 strain, UniProt P0DTC2 16-1213). Nature of the experiment: dose-response ELISA on coated spike antigen. For orientation: An ELISA detects its analyte on a solid surface through an enzyme-linked reagent.
The target of another experiment is T2, MERS-COV (S2).
T2 chain: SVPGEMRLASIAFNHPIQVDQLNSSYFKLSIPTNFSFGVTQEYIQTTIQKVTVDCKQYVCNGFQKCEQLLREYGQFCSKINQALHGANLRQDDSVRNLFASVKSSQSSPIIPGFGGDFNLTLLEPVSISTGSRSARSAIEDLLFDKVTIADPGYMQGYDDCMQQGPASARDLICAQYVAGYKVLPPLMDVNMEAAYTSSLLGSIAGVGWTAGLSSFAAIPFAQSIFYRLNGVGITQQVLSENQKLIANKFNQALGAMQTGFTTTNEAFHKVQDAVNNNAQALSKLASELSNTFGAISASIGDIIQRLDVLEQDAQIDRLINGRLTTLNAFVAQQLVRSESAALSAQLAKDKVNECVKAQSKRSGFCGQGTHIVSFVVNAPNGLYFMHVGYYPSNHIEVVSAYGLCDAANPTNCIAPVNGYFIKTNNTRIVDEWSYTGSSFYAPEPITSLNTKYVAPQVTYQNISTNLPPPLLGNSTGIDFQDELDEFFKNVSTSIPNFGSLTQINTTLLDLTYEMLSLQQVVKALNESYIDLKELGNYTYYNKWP
Nature of the experiment: dose-response ELISA on coated spike antigen.

For another experiment, the target named is T3, MERS-COV (S1+S2).
T3 chain: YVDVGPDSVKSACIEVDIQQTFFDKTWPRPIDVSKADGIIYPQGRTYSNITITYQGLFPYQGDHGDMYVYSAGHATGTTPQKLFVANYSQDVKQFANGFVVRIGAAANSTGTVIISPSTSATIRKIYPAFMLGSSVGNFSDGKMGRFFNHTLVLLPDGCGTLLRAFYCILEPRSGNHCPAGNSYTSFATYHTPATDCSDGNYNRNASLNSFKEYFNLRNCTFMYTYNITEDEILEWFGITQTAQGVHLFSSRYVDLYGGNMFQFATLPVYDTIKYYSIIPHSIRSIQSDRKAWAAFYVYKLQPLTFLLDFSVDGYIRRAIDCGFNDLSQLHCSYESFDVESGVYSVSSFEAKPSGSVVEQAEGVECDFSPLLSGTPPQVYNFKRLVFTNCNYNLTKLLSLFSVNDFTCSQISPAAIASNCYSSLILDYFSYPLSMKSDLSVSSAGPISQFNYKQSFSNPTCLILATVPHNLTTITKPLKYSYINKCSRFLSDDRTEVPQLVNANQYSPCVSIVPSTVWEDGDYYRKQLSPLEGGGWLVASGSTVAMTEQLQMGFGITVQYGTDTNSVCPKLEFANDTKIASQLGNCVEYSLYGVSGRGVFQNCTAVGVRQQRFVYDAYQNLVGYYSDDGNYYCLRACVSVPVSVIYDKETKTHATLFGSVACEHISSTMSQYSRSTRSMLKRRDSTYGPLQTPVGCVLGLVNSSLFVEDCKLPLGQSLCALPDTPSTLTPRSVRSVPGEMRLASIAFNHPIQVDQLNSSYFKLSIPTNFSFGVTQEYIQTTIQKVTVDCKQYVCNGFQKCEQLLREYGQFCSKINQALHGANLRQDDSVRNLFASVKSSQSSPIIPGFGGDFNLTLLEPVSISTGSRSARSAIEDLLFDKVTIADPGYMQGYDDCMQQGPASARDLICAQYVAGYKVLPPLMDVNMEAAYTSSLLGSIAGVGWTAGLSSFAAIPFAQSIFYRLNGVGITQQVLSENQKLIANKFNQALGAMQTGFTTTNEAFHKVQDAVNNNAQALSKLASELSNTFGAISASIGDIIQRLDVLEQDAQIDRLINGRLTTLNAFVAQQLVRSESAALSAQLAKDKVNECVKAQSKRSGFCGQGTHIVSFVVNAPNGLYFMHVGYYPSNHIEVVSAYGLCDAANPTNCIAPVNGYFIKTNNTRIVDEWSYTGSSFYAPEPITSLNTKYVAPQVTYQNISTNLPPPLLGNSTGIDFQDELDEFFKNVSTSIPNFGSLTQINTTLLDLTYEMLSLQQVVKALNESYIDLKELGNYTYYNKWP
As to the kind of experiment: dose-response ELISA on coated spike antigen.

Experiment [4] addresses T1, SARS-CoV-2 spike (S) protein trimer, …. As to the kind of experiment: dose-response ELISA on coated antigen.
Experiment [5] shares this target.
Experiment [6] addresses T4, S1 subunit of the SARS-CoV-2 spike protein, WA01/2020 strain (SARS-CoV-2, WA01/2020 strain, UniProt P0DTC2 16-685). As to the kind of experiment: dose-response ELISA.
In experiment [7] the target is T1, SARS-CoV-2 spike (S) protein trimer, …. As to the kind of experiment: ELISA screening, antibody concentration not given.
In experiment [8] the target is T5, SARS-CoV-2 nucleocapsid (N) protein (SARS-CoV-2, UniProt P0DTC9 1-419). Nature of the experiment: ELISA screening, antibody concentration not given.
Experiment [9] has as its target T6, S2 subunit of the SARS-CoV-2 spike protein, WA01/2020 strain (SARS-CoV-2, WA01/2020 strain, UniProt P0DTC2 686-1213). As to the kind of experiment: ELISA screening, antibody concentration not given.
In experiment [10] the target is T4, S1 subunit of the SARS-CoV-2 spike …. As to the kind of experiment: ELISA screening, antibody concentration not given.
Experiment [11] addresses T5, SARS-CoV-2 nucleocapsid (N) protein. Nature of the experiment: ELISA, antibody at 0.1 ug/mL.
The target of experiment [12] is T6, S2 subunit of the SARS-CoV-2 spike …. As to the kind of experiment: ELISA, antibody at 0.1 ug/mL.
Experiment [13] has as its target T4, S1 subunit of the SARS-CoV-2 spike …. Nature of the experiment: dose-response ELISA on coated antigen.
For experiment [14] the target is unchanged.
Experiment [15] deals with T5, SARS-CoV-2 nucleocapsid (N) protein. As to the kind of experiment: ELISA, antibody at 0.1 ug/mL. The source holds these as a separate data set.
Experiment [16] concerns the target T6, S2 subunit of the SARS-CoV-2 spike …. Nature of the experiment: dose-response ELISA on coated spike antigen.

B1: antibody 1439 (antibody, V domains shown)
VH: QVQLQESGPGLVKPSETLSLTCTVSGDSISTYYWSWIRQPPGKGLEWIGYIHYSGSTNYNPSLKSRVAVSVDTSKNQFSLKLSSVTAADTAVYYCARGGGVFGVVINFDYWGQGILVTVSS
VL: NFMLTQPYSVSESPGKTVTISCTRSSGSIASNYVQWYQQRPGSAPTTVIYEDNQRPSGVPDRFSGSIDSSSNSASLTISGLKTEDEADYYCQSRDSSNPVVFGGGTKLTVL
For B1, in [1], the “Pseudo Neut, SARS-CoV 2003 IC50” value worked out at 29 nM. In [2], the “Pseudo Neut, WA1/2020 IC50 (pM)” value was 30200 pM. Moreover, the “EC50 (read off the curve)” value in experiment [3] was around 0.1 µg/mL. The binding result with MERS-COV (S2) and with MERS-COV (S1+S2) was “no binding (tested: 10000 ng/ml)” throughout.

B2: antibody 2606 (antibody, V domains shown)
VH: EVQLVESGGGLVKPGGSLRLSCAASGFTFSSYSMNWVRQAPGKGLEWVSSITSSSGYMYYADSVKGRFTISRDNAKNSLYLQLNSLRAEDTAVYYCAKDSAFDLWEVRSYYYVMDVWGQGTTVTVSS
VL: not shown
With B2, the EC50 in experiment [4] turned out to be 0.057 nM. The same molecule registered a Kd in [5] of 0.00787 nM. The binding result in [6] is recorded as “no binding”.

B3: antibody 1959 (antibody, V domains shown)
VH: QVQLVQSGTEVKKPGSSVRVSCQASGDTFTSHAIIWIRQAPGQGLEYLGRIIPVLDITNAAQRFLGRLTLTADKSTTTAYMELSSLRSEDTAVYYCARAPFGLIVMYDHWGQGTLVTVTA
VL: EIVLTQSPGTLSLSPGERATLSCRASQSVSGNFLAWYQQKPGQAPRLLIHETSKRATGIPDRVSGGGSGTDFTLTISRLEPEDFAVYHCQQYGTTAVTFGQGTRLDMK
As to B3, the binding result in [7], in [8], in [9] and in experiment [10] was “no binding (tested: not printed)” in each case.

B4: antibody 2432 (antibody, V domains shown)
VH: QVQLVQSGAEVKKPGSSVKVSCKASGDTFSSYAISWVRQAPGQGLEWLGGIIPIFGSADYAQKFQGRVTITADEFTSTAYMELSSLRSEDTAVYFCAREKYGDYGEGPLYNFDYWGQGTLVTVSS
VL: not shown
B4 displayed an EC50 in experiment [4] of 0.024 nM. This molecule also registered a Kd in experiment [5] of 0.243 nM. For the same molecule, the binding result in experiment [6] is “no binding”.

B5: antibody 1915 (antibody, V domains shown)
VH: QVQLVESGGGVVQPGRSLRLSCAASGFTFSSYAMHWVRQAPGKGLEWVAVISYDGSNKYYADSVKGRFTISRDNSKNTLYLQMDSLRAQDTAVYYCATPRDMFSSGWSSPFDYWGQGTLVTVSS
VL: DIQMTQSPSSLSASVGDRVTITCQASQDISIYLTWYQQKPGKAPKLLIYGASNLEVEVPSRFSGSGSGTEFTLTISSLQPEDFATYFCQHSDDLPVTFGGGTKVEVK
As to B5, the binding result in [7], in experiment [8], in experiment [9] and in experiment [10] was “no binding (tested: not printed)” each time.

B6: antibody 1589 (antibody, V domains shown)
VH: EVQLVESGGGLIQVGGSLRLSCAASGLTVTSNYMNWVRQGPGKGLEWVSLIYSGGTTYYADSVKGRFTISRDDSKNTLYLQMNSLRAEDTAVYYCARPIVGARSGMDVWGQGTAVTVSS
VL: DIQMTQSPSSLSASVGDRVTITCQASQDINKYLNWYQQKPGKAPKLLIYDASNLETGVPSRFSGSGSGTDFTFTISSLQPEDLATYYCHQFDNLPGTFGGGTKVEIK
On to B6, for which, in experiment [2], the “Pseudo Neut, WA1/2020 IC50 (pM)” value was 1170 pM. The binding result in experiment [11] is reported as “no binding (tested: 0.1 ug/mL)”; in experiment [12], “no binding (tested: 0.1 ug/mL)”; with MERS-COV (S2) it was “no binding (tested: 10000 ng/ml)”; with MERS-COV (S1+S2) it was “no binding (tested: 10000 ng/ml)”.

B7: antibody 2793 (antibody, V domains shown)
VH: QVQLVQSGAEVKKPGASVKVSCKVSGFTLPELSIHWVRQAPGKGLEWMGGFDPEDAKTIYAQKFQGRVTMTEDTSTDIAYMELNSLRSDDTAVYYCATGSPFGVVGNWLDPWGQGTLVTVSS
VL: QSALTQPASVSGSPGQSITISCTGTSSDVGDFSYVSWYQQHPGKAPKLMIYEVTKRPSGVSNRFSGSKSGNTASLTISGLQTEDEADYYCTSYTSSRLVLFGGGTKLTVL
As to B7, the EC50 was 0.068 nM in experiment [4] and 0.113 nM in experiment [13]. The molecule also showed a Kd in experiment [14] of 0.398 nM. The binding result in experiment [15] was “no binding (tested: 0.1 ug/mL)”; with MERS-COV (S2) it was “no binding (tested: 10000 ng/ml)”; with MERS-COV (S1+S2), “no binding (tested: 10000 ng/ml)”; in [16], “no binding (tested: 10000 ng/ml)”.

As a reminder, the EC50 (read off the curve) is the midpoint of the concentration-response curve. A lower EC50 (read off the curve) goes with higher potency in that assay. The term EC50 denotes the midpoint of the concentration-response curve. Lower therefore signals a more potent agent. By Kd is commonly meant the free concentration of one partner at which half of the binding sites on the other are occupied at equilibrium, for simple one-to-one binding. Read a high Kd as a looser complex.
